Measurements: IntAct's records for PubMed 23770679

B1: Microtubule protein alp7 (Schizosaccharomyces pombe (strain ATCC 38366 / 972)), Q9URY2 (parent)
chain: MSDIVSSSTDYSRRSPSSSSIGTNETDHTGFHEKRQGASSESLIPPAQRSSEESMPAPKLFPKLTSKPNPQLNLKDTLNKRVSDRLQALELNKSFDFSGTPRPMHPISHPLSQHKTPEFKHRKRNVESILTPKNPSLFSSSNAASQRGSLNTAPSNFAYSHSSSLQTSASSRPPVLSNGSFPRQTNTAPLNPPVHLKDNIRNSATPSTSQADIPTQYPINSTQKQQAKYEAEIEGYKAKLAGTYHEISVLQNTIVNVSGQLIAVNDQLQQLRSGKASTSPSTKDTNMRLVEGHNEETLALQRGKYTQEEVDKLIQERMEKVAEDLHAQYSAKHTQKINAFKANYARKYEATIQELQNQIGTAPNAPKISNSNWEEERRALKADNQTLQKQLEKAIQERQDMSDFLNNFKADMAKSDKLLMQQQSQQTGDLETLRLQLQALQEELRVEREERQQLIQMSEDLVIAMDQLNLEQKS
partner: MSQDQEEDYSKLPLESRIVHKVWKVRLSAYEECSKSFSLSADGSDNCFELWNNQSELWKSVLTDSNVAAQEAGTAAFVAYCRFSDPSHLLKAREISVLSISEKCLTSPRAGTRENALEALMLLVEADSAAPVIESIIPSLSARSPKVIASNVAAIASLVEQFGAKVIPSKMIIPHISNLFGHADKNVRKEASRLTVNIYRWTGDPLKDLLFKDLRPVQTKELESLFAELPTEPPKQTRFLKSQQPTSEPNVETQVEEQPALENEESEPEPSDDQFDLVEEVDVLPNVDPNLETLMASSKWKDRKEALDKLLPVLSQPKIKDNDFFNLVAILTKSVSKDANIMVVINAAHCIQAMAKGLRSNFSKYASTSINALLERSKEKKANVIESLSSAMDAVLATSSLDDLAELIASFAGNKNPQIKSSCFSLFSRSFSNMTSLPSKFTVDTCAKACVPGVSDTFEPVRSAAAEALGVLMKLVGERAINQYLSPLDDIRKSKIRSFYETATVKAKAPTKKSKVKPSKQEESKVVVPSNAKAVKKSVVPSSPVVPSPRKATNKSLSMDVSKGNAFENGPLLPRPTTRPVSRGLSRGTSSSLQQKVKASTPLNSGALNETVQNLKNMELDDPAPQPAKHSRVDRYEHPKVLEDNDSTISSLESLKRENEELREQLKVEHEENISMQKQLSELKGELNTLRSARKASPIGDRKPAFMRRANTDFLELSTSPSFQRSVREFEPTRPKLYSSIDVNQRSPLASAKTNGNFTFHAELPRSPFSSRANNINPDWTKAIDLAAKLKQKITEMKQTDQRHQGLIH
B2: Microtubule protein alp7 (Schizosaccharomyces pombe (strain ATCC 38366 / 972)), Q9URY2 (parent)
chain: B1 chain
partner: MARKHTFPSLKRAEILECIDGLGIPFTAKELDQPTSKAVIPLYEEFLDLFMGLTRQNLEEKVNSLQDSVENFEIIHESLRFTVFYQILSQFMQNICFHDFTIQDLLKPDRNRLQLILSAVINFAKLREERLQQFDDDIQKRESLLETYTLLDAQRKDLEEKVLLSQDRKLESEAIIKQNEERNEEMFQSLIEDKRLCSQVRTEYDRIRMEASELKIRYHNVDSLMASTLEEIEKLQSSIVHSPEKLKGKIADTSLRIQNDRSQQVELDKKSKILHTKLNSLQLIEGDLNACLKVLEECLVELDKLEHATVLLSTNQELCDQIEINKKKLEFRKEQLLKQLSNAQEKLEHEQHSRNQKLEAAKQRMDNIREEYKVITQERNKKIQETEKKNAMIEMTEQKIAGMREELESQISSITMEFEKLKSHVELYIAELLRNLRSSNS

Variants of: B1
Conditions: with alp14_schpo alp14, O94534

| Variant | effect of a mutation on the interaction |
| --- | --- |
| MSDIVSSSTDYSRRSPSSSSIGTNETDHTGFHEKRQGASSESLIPPAQRSSEESMPAPKLFPKLTSKPNPQLNLKDTLNKRVSDRLQALELNKSFDFSGTPRPMHPISHPLSQHKTPEFKHRKRNVESILTPKNPSLFSSSNAASQRGSLNTAPSNFAYSHSSSLQTSASSRPPVLSNGSFPRQTNTAPLNPPVHLKDNIRNSATPSTSQADIPTQYPINSTQKQQAKYEAEIEGYKAKLAGTYHEISVLQNTIVNVSGQLIAVNDQLQQLRSGKASTSPSTKDTNMRLVEGHNEETLALQRGKYTQEEVDKLIQERMEKVAEDLHAQYSAKHTQKINAFKANYARKYEATIQELQNQIGTAPNAPKISNSNWEEERRALKADNQTLQKQLEKAIQERQDMSDFLNNFKADMAKSDKLLMQQQSQQTGDLETLRLQLQALQEELRVEREERQQLIQMSEDAVIAMDQLNLEQKS [L461A] | disrupting interaction strength |

Variants of: B2
Conditions: with nuf2_schpo nuf2, Q10173

| Variant | effect of a mutation on the interaction |
| --- | --- |
| MSDIVSSSTDYSRRSPSSSSIGTNETDHTGFHEKRQGASSESLIPPAQRSSEESMPAPKLFPKLTSKPNPQLNLKDTLNKRVSDRLQALELNKSFDFSGTPRPMHPISHPLSQHKTPEFKHRKRNVESILTPKNPSLFSSSNAASQRGSLNTAPSNFAYSHSSSLQTSASSRPPVLSNGSFPRQTNTAPLNPPVHLKDNIRNSATPSTSQADIPTQYPINSTQKQQAKYEAEIEGYKAKLAGTYHEIAVLQNTIVNVSGQLIAVNDQLQQLRSGKASTSPSTKDTNMRLVEGHNEEALALQRGKYTQEEVDKLIQERMEKVAEDLHAQYSAKHTQKINAFKANYARKYEAAIQELQNQIGTAPNAPKISNSNWEEERRALKADNQTLQKQLEKAIQERQDMADFLNNFKADMAKSDKLLMQQQSQQTGDLETLRLQLQALQEELRVEREERQQLIQMSEDLVIAMDQLNLEQKS [S248A;T297A;T351A;S402A] | disrupting interaction strength |
